Test results taken from patent publication US6710030B1, “Contortrostain (CN) and methods for its use in preventing metastasis and other conditions” (University of Southern California, priority 1993, dated 2004).

B1: flavoridin: monomeric disintegrin obtained from Sigma (protein)
chain: GEECDCGSPSNPCCDAATCKLRPGAQCADGLCCDQCRFKKKRTICRIARGDFPDDRCTGLSNDCPRWNDL
B2: monomeric vitronectin: soluble monomeric vitronectin (protein, UniProt P04004 20-478, looked up)
Vitronectin: DQESCKGRCTEGFNVDKKCQCDELCSYYQSCCTDYTAECKPQVTRGDVFTMPEDEYTVYDDGEEKNNATVHEQVGGPSLTSDLQAQSKGNPEQTPVLKPEEEAPAPEVGASKPEGIDSRPETLHPGRPQPPAEEELCSGKPFDAFTDLKNGSLFAFRGQYCYELDEKAVRPGYPKLIRDVWGIEGPIDAAFTRINCQGKTYLFKGSQYWRFEDGVLDPDYPRNISDGFDGIPDNVDAALALPAHSYSGRERVYFFKGKQYWEYQFQHQPSQEECEGSSLSAVFEHFAMMQRDSWEDIFELLFWGRTSAGTRQPQFISRDWHGVPGQVDAAMAGRIYISGMAPRPSLAKKQRFRHRNRKGYRSQRGHSRGRNQNSRRPSRATWLSLFSSEESNLGANNYDDYRMDWLVPATCEPIQSVFFFSGDKYYRVNLRTRRVDTVDPPYPRSIAQYWLGCPAPGHL

Tested on: MDA-MB-435 cells
Assay: Phosphotyrosine immunoblot, MDA-MB-435 cells
Type: cell-based, human
Description: Cell culture, preparation and stimulation—T24 cells were maintained in RPMI 1640 medium containing 5% fetal bovine serum, and MDA-MB-435 and 293 cells were maintained in Dulbecco's modified Eagle's medium with 10% serum at 37° C. in 5% CO2. Cells were washed with phosphate-buffered saline (PBS) and starved in the appropriate serum-free medium for 6 h at 37° C. Cells were detached by brief treatment with 0.05% trypsin/0.02% EDTA in PBS and collected by centrifugation, resuspended in soybean trypsin inhibitor (1 mg/ml in serum-free medium), and washed in 2% bovine serum albumin/serum-free medium. Cells were maintained in suspension for 1 h in 2% bovine serum albumin/serum-free medium at 37° C. with end-over-end agitation. Quiescent cells (3×10^6/ml) were treated with disintegrins or other reagents while in suspension, or were allowed to adhere to Matrigel (Becton Dickinson, Bedford, Mass.) diluted 1:100 with serum-free medium during treatment.
Lysate preparation and immunoprecipitation—Suspended and adherent cells were washed twice with cold PBS and lysed in cold lysis buffer (50 mM Tris, pH 8.0, 150 mM NaCl, 1% Nonidet P-40, 0.5% deoxycholate, 0.1% SDS, protease inhibitor cocktail, 1 mM sodium pyrophosphate, 1 mM sodium orthovanadate, 50 mM sodium fluoride). After 10-15 min incubation on ice, insoluble material was removed by centrifugation at 14,000 RPM in a microcentrifuge for 15 min. Supernatants were collected and total protein concentrations standardized by the BCA protein assay (Pierce, Rockford, Ill.). Immunoprecipitation was carried out by incubating whole cell lysates (200 μg total protein) with 1.25 μg anti-FAK or anti-CAS mAb 4-6 h at 4° C. followed by 20 μl protein G-agarose overnight at 4° C. Immunoprecipitates were washed 4 times in lysis buffer without inhibitors and dissociated by adding SDS-PAGE sample buffer and boiling 5 min. Whole cell lysates (30 μg total protein) or immunoprecipitates were resolved by 7.5% SDS-polyacrylamide gel electrophoresis and transferred to nitrocellulose membranes.
Immunoblotting—Membranes were blocked with 5% nonfat milk/Tris-buffered saline/0.1% Tween 20 (blocking buffer) 1 h at room temperature or overnight at 4° C. Primary antibody incubations were performed in blocking buffer for 1 h at room temperature. After washing in Tris-buffered saline/0.1% Tween 20, membranes were incubated with horseradish peroxidase-conjugated secondary antibody in blocking buffer 1 h at room temperature. Membranes were washed extensively. Inimunoblots were developed using Super Signar West Pico Chemiluminescent Substrate from Pierce. Densitometry was performed using UN-SCAN-IT™, software (Silk Scientific, Orem, Utah))

Molecule | effect on contortrostatin (10 nM)-induced tyrosine phosphorylation (1 μM, added simultaneously, 10 min) | effect alone on tyrosine phosphorylation (concentrations up to 1 μM) | stimulation of tyrosine phosphorylation (10 μg/ml, data not shown)
B1 | completely abrogated | no effect on tyrosine phosphorylation | –
B2 | – | – | failed to stimulate tyrosine phosphorylation
